# Values of other authors in article PMC4254573.
# Assays:
# sEGFR ECD (Homo sapiens) = sEGFR ECD (Homo sapiens) (UniProt P00533)
# [1] = molecular target: EGFR ECD (Drosophila melanogaster) (UniProt P04412)
Substance,Kd (sEGFR ECD (Homo sapiens)) [µM],Kd [1] [µM]
sEGFR ECD (from UniProt P00533),1,
EGFR ECD (from UniProt P04412),,40
